Results on two molecules are retold here after PMC9723502.

The target of the series is CsrA-His10 (Escherichia coli K-12, UniProt P69913 1-61). The series can be described thus: EMSA.

With GGGUUCAGGGACGUCAUUACGGGCAGGAUUGCCCACCC (structured_RNA) [FimR2-G23A-G24U], the binding result is given as “no binding”.

Turning to GGGUUCAAAGACGUCAUUACGGGCAGGGAUGCCCACCC (structured_RNA) [FimR2 ssRegion mutant], the binding result is listed as “binds”.
